Test results from patent publication US20260242839A1, “GLYCOSIDE PRODUCT BIOSYNTHESIS AND RECOVERY” (Manus Bio Inc., priority 2023, published 2026).
Where a chain is given by its changes, count along the chain named. In names and notes the source's numbering stands. Several values for one entry are separate records, joined by “and”; a condition that tells them apart may be missing. Equal values may be shown once.

B1: SEQ ID NO: 83: UGT73C33 (Glycyrrhiza uralensis) (protein, listed as Glycyrrhiza sp.)
chain: MAVFQANQPHFVLFPLMAQGHIIPMIDIARLLAQRGAIVTIFTTPKNASRFTSVLSRAVSSGLQIRLVHLHFPSKEAGLPEGCENLDMVASHDMICNIFQAIRMLQKQAEELFETLTPKPSCIISDFCIPWTTQVAEKHHIPRISFHGFSCFCLHCMLKIHTSKVLEGITSESEYFTVPGIPDQIQVTKQQVPGPMIDEMKEFGEQMRDAEIRSYGVIINTFEELEKAYVNDYKKERNGKVWCIGPVSLCNKDGLDKAQRGNKASISEHHCLEWLDLQQPNSVIYVCLGSLCNLTPPQLMELALGLEATKRPFIWVIREGNKFEELEKWISEEGFEERIKGRGLIIRGWAPQVLILSHPSIGGFLTHCGWNSTLEGVTAGVPMVTWPLFADQFLNEKLVTQVLRIGVSLGVDVPLKWGEEEKVGVQVKKEGIEKAICMVMDEGEESKERRERAKELSEMAKRAVEKDGSSHLNMTMLIQDIMQQSSSKVET
B2: SEQ ID NO: 82: UGT73F24 (Glycyrrhiza uralensis) (protein, listed as Glycyrrhiza sp.)
chain: MADVAEEQPLKIYFIPYLAAGHMIPLCDIATLFASRGHHVTIITTPSNAQTLRESHHFRVQTIQFPSQEVGLPAGVQNLTAVTNLDDSYKIYHATMLLRKHIEDFVERDPPDCIVADFLFPWVDDVATKLHIPRLVFNGFTLFTICAMESHKAHPLPVDAASGSFVIPDFPHHVTINSTPPKRTKEFVDPLLTEAFKSHGFLINSFVELDGEECVEHYERITGGHKAWHLGPAFLVHRTAQDRGEKSVVSTQECLSWLDSKRDNSVLYICFGTICYFPDKQLYEIASAIEASGHEFIWVVPEKRGNADESEEEKEKWLPKGFEERNNGKKGMIIRGWAPQVAILGHPAVGGFLTHCGWNSTVEAVSAGVPMITWPVHSDQYFNEKLITQVRGIGVEVGAEEWIVTAFRETEKLVGRDRIERAVRRVMDGGDEAVQIRRRARELGEMARQAVQEGGSSHTNLTALINDLKRWRDSKQLN
B3: SEQ ID NO: 81: UGT enzyme (Camelina sativa) (protein, listed as Camelina sativa)
chain: MASEKTLQVHPPLHFVLFPFMAQGHMIPMVDIARLLAQRGATVTIVTTRYNAGRFENVLSRAVESGLPINIVHVKFPYEEVGLPKGKENIDSLDSMELMVPFFKAVNMLQDPVVKLMEEMESRPSCIISDLLLPYTSKIAKKFNIPKIVFHGISCFCLLCVHVLRRNLEILTNLKSDKEYFLVPSFPDRVEFTKPQVTVETNASGDWKEFLDEMVEAEDTSYGVIINTFEELEPAYVKDYKDARAGNVWSIGPVSLCNKAGVDKAERGNKATIDQDECLKWLDSKEEGSVLYVCLGSICNLPLVQLKELGLGLEESQRPFIWVIRGWEKYNELSEWMVESGFEERIRERGLLIRGWAPQVLILSHPSVGGFLTHCGWNSTVEGITSGVPLITWPLFGDQFCNQTLVVQVLKAGVSVGVEEVMKWGEEEKIGVLVDKEGVKKAVEDLMGESDDAKERTKRVKELGGLAHKAVEEGGSSHSNITLFLQDIRQVQSV
B4: SEQ ID NO: 17: SrUGT85C2 (Stevia rebaudiana) (protein, listed as Stevia rebaudiana)
chain: MDAMATTEKKPHVIFIPFPAQSHIKAMLKLAQLLHHKGLQITFVNTDFIHNQFLESSGPHCLDGAPGFRFETIPDGVSHSPEASIPIRESLLRSIETNFLDRFIDLVTKLPDPPTCIISDGFLSVFTIDAAKKLGIPVMMYWTLAACGFMGFYHIHSLIEKGFAPLKDASYLTNGYLDTVIDWVPGMEGIRLKDFPLDWSTDLNDKVLMFTTEAPQRSHKVSHHIFHTFDELEPSIIKTLSLRYNHIYTIGPLQLLLDQIPEEKKQTGITSLHGYSLVKEEPECFQWLQSKEPNSVVYVNFGSTTVMSLEDMTEFGWGLANSNHYFLWIIRSNLVIGENAVLPPELEEHIKKRGFIASWCSQEKVLKHPSVGGFLTHCGWGSTIESLSAGVPMICWPYSWDQLTNCRYICKEWEVGLEMGTKVKRDEVKRLVQELMGEGGHKMRNKAKDWKEKARIAIAPNGSSSLNIDKMVKEITVLARN
B5: K99F: mutation to UGT enzyme of SEQ ID NO: 15 (protein)
chain: MARRTKNSSGMSLAERFWLTLSRSSLVVGRSCVEFEPETVPLLSTLRGKPITFLGLMPPLPEGRREDGEDATVRWLDAQPAKSVVYVALGSEVPLGVEFVHELALGLELAGTRFLWALRKPTGVSDADLLPAGFEERTRGRGVVATRWVPQMSILAHAAVGAFLTHCGWNSTIEGLMFGHPLIMLPITGDQGPNARLIEAKNAGLQVARNDGDGSFDREGVAAAIRAVAVEEESSKVFQEKAKKLQEIVADMACHERYIDGFIQQLRSYKDDSGYSSSYAAAAGMHVVICPWLAFGHLLPCLDLAQRLASRGHRVSFVSTPRNISRLPPVRPALAPLVAFVALPLPRVEGLPDGAESTNDVPHDRPDMVELHRRAFDGLAAPFSEFLGTACADWVIVDSFHHWAAAAALEHKVPCAMMFLGSAEMIASIADERLEHAETESPAAAGQGRPAAAPTFEVARMKLIR
B6: M152A_S153A: SEQ ID NO: 15 with mutations M152A, S153A (protein)
chain: B5 chain with F99K, M152A, S153A
B7: L205Y: mutation to UGT enzyme of SEQ ID NO: 15 (protein)
chain: B5 chain with F99K, L205Y
B8: G189Y: mutation to UGT enzyme of SEQ ID NO: 15 (protein)
chain: B5 chain with F99K, G189Y
B9: S310T: mutation to UGT enzyme of SEQ ID NO: 15 (protein)
chain: B5 chain with F99K, S310T
B10: G96M: mutation to UGT enzyme of SEQ ID NO: 15 (protein)
chain: B5 chain with G96M, F99K
B11: S125V: mutation to UGT enzyme of SEQ ID NO: 15 (protein)
chain: B5 chain with F99K, S125V
B12: K99E: mutation to UGT enzyme of SEQ ID NO: 15 (protein)
chain: B5 chain with F99E
B13: M425S: mutation to UGT enzyme of SEQ ID NO: 15 (protein)
chain: B5 chain with F99K, M425S
B14: A81G: mutation to UGT enzyme of SEQ ID NO: 15 (protein)
chain: B5 chain with A81G, F99K
B15: A451R: mutation to UGT enzyme of SEQ ID NO: 15 (protein)
chain: B5 chain with F99K, A451R
B16: A81K: mutation to UGT enzyme of SEQ ID NO: 15 (protein)
chain: B5 chain with A81K, F99K
B17: H402W: mutation to UGT enzyme of SEQ ID NO: 15 (protein)
chain: B5 chain with F99K, H402W
B18: P442G: mutation to UGT enzyme of SEQ ID NO: 15 (protein)
chain: B5 chain with F99K, P442G
B19: L298F: mutation to UGT enzyme of SEQ ID NO: 15 (protein)
chain: B5 chain with F99K, L298F
B20: P442D: mutation to UGT enzyme of SEQ ID NO: 15 (protein)
chain: B5 chain with F99K, P442D

System: mogrol
Test: primary glycosylation at C3 and C24 hydroxyls of mogrol by cells expressing UGT enzymes
Type: cell-based, E. coli
Settings: mogrol fed; 37° C., 48 hrs; LCMS/MS
Protocol: Specifically, mogrol was fed to cells expressing various UGT enzymes. Reactions were incubated at 37° C. for 48 hrs. Products were quantified by LCMS/MS with authentic standards of each compound.

Row | Molecule | C3 O-Glucosylation | C24 O-Glucosylation
1 | B1 | No | Yes
2 | B2 | No | Yes
3 | B3 | No | Yes
4 | B4 | No | Yes

System: steviol glycoside
Test: steviol glycoside bioconversion by E. coli expressing individual mutations of UGT SEQ ID NO: 15
Type: cell-based
Settings: fold improvement of % conversion vs parent UGT SEQ ID NO: 15; stevia leaf extract and glucose fed; 37° C., 48 hr
Protocol: Fold improvement is with respect to % steviol glycoside conversion of the parent UGT enzyme of SEQ ID NO: 15. SEQ ID NO: 16 has the following mutations from SEQ ID NO: 15: M152A, S153A. Stevia leaf extract and glucose were fed to the bioconversion strains. Bioconversion took place at 37° C. for 48 hr. Data were quantified by reverse phase LC DAD to quantify conversion of steviol glycosides.
Fold improvement (FI) is with respect to % steviol glycoside conversion.

Row | Molecule | FI % Stevioside −> rebE | FI % rebA −> rebD
5 | B5 | 1.08 | 1.08
6 | B6 | 1.32 | 1.26
7 | B7 | 1.03 | 1.04
8 | B8 | 1.04 | 1.04
9 | B9 | 1.04 | 1.04
10 | B10 | 1.03 and 1.10 | 1.01 and 1.10
11 | B11 | 1.16 | 1.13
12 | B12 | 1.02 | 1.03
13 | B13 | 1.03 | 1.02
14 | B14 | 1.09 | 1.04
15 | B15 | 0.99 | 1.02
16 | B16 | 1.02 and 1.01 | 1.04 and 1.02
17 | B17 | 1.07 | 1.09
18 | B18 | 1.01 | 1.01
19 | B19 | 1.01 | 0.97
20 | B20 | 1.18 | 1.19
